In the data set the test system is Escherichia coli TOP10. In words: shrunken log2 fold change of peptide-encoding DNA abundance (4.5 h post-induction vs induction); higher = less antimicrobial activity (less host growth inhibition). As to conditions: time post-induction: 4.5 h; library: site-saturation at positions 5, 18, 19, 20.
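Note: peptides expressed intracellularly from a pBAD plasmid library in pooled LB shake-flask culture, induced with 0.3% L-arabinose, DNA abundance read by NGS, three biological replicates, DESeq2 with apeglm shrinkage.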

Regarding RRIRLRPPRLPRPRPRPRCRPRP, the “shrunken log2 fold change” value was found to be 0.434. The same measure for RRIRSRPPRLPRPRPRPFPGPRP: 0.0161; for RRIRFRPPRLPRPRPRPIKRPRP: 0.988.

As to RRIRNRPPRLPRPRPRPKPMPRP, the “shrunken log2 fold change” value was 0.375. For RRIRSRPPRLPRPRPRPWAVPRP, the “shrunken log2 fold change” value was -0.0517. The same measure for RRIRMRPPRLPRPRPRPISEPRP: 0.151; for RRIRIRPPRLPRPRPRPTLGPRP: -0.139; for RRIRFRPPRLPRPRPRPNIYPRP: -0.116.

Regarding RRIRMRPPRLPRPRPRPKPPPRP, the “shrunken log2 fold change” value is 1.64.

Take RRIRFRPPRLPRPRPRPHYLPRP: the “shrunken log2 fold change” value is -0.217.

For RRIRCRPPRLPRPRPRPHCVPRP, the “shrunken log2 fold change” value is -0.439. Next, RRIRNRPPRLPRPRPRPAEHPRP: -0.201; RRIRGRPPRLPRPRPRPGRHPRP: 0.314; RRIRNRPPRLPRPRPRPLWHPRP: -0.185. The same measure for RRIRPRPPRLPRPRPRPQICPRP: -0.0262. The same measure for RRIRVRPPRLPRPRPRPHGVPRP: 0.0673; for RRIRGRPPRLPRPRPRPPMNPRP: 0.464.

Turning to RRIRKRPPRLPRPRPRPCEVPRP, the “shrunken log2 fold change” value amounted to 0.0441. The same measure for RRIRMRPPRLPRPRPRPDSTPRP: 1.09; for RRIRFRPPRLPRPRPRPKYMPRP: -0.836. As for RRIRQRPPRLPRPRPRPIYKPRP, the “shrunken log2 fold change” value is -0.12.

Regarding RRIRTRPPRLPRPRPRPKPSPRP, the “shrunken log2 fold change” value stood at 0.335. As to RRIRPRPPRLPRPRPRPACAPRP, the “shrunken log2 fold change” value stood at 0.593. Next, RRIRERPPRLPRPRPRPEHRPRP: -0.0185; RRIRLRPPRLPRPRPRPLAQPRP: 0.73. Next, RRIRIRPPRLPRPRPRPLPWPRP: -0.019. The same measure for RRIRTRPPRLPRPRPRPGANPRP: -0.124; for RRIRHRPPRLPRPRPRPLLMPRP: -0.0151; for RRIRWRPPRLPRPRPRPNTYPRP: 0.0764. For RRIRQRPPRLPRPRPRPSEFPRP, the “shrunken log2 fold change” value was -0.0736. With RRIRWRPPRLPRPRPRPDVMPRP, the “shrunken log2 fold change” value stood at 0.126. Next, RRIRMRPPRLPRPRPRPEAKPRP: 2.72; RRIRLRPPRLPRPRPRPPHTPRP: 0.26; RRIRCRPPRLPRPRPRPHDAPRP: -0.336. The same measure for RRIRMRPPRLPRPRPRPVNNPRP: -0.0848; for RRIRWRPPRLPRPRPRPFWRPRP: 0.111. For the sequence RRIRFRPPRLPRPRPRPYQMPRP, the “shrunken log2 fold change” value was -0.0843.

Consider RRIRMRPPRLPRPRPRPFSAPRP, for which the “shrunken log2 fold change” value worked out at 0.138. Next, RRIRVRPPRLPRPRPRPLCSPRP: -0.0335; RRIRHRPPRLPRPRPRPGMFPRP: -0.178.

Regarding RRIRVRPPRLPRPRPRPALKPRP, the “shrunken log2 fold change” value was determined as 0.253. Consider RRIRWRPPRLPRPRPRPVSMPRP, for which the “shrunken log2 fold change” value was -0.00416. Next, RRIRDRPPRLPRPRPRPSVVPRP: -0.0127; RRIRCRPPRLPRPRPRPEEDPRP: -0.00229; RRIRWRPPRLPRPRPRPAELPRP: -0.0722. The same measure for RRIRKRPPRLPRPRPRPEHKPRP: 0.295; for RRIRGRPPRLPRPRPRPAFNPRP: 0.2.

As to RRIRMRPPRLPRPRPRPKLFPRP, the “shrunken log2 fold change” value is 0.244. Next, RRIRSRPPRLPRPRPRPGSDPRP: 0.0314. Next, RRIRWRPPRLPRPRPRPLDTPRP: 0.0244; RRIRFRPPRLPRPRPRPVRMPRP: 0.0345; RRIRGRPPRLPRPRPRPTDFPRP: 0.161. The same measure for RRIRWRPPRLPRPRPRPWQAPRP: 0.00325. Take RRIRMRPPRLPRPRPRPMHPPRP: the “shrunken log2 fold change” value amounted to 0.0065.

As for RRIRIRPPRLPRPRPRPEGPPRP, the “shrunken log2 fold change” value was -0.0796. The same measure for RRIRLRPPRLPRPRPRPVCVPRP: -0.115; for RRIRERPPRLPRPRPRPCWDPRP: -0.00421; for RRIRWRPPRLPRPRPRPLKIPRP: -0.195. Next, RRIRDRPPRLPRPRPRPVGCPRP: 0.229; RRIRCRPPRLPRPRPRPCKCPRP: -0.0236; RRIRMRPPRLPRPRPRPYQIPRP: -0.0607. Next, RRIRGRPPRLPRPRPRPIYQPRP: 0.0644. RRIRTRPPRLPRPRPRPRHPPRP: the “shrunken log2 fold change” value worked out at 0.225.

On to RRIRIRPPRLPRPRPRPGRKPRP, for which the “shrunken log2 fold change” value came to 0.0417. The same measure for RRIRDRPPRLPRPRPRPFSTPRP: -0.0877; for RRIRPRPPRLPRPRPRPKDVPRP: -0.115.

For RRIRWRPPRLPRPRPRPNATPRP, the “shrunken log2 fold change” value turned out to be 0.736. The same measure for RRIRQRPPRLPRPRPRPQTWPRP: 0.126; for RRIRTRPPRLPRPRPRPLSQPRP: -0.0906; for RRIRMRPPRLPRPRPRPIYRPRP: -0.0679.

As for RRIRNRPPRLPRPRPRPTWIPRP, the “shrunken log2 fold change” value is -0.0601. Next, RRIRTRPPRLPRPRPRPWGPPRP: -0.0265.

Turning to RRIRDRPPRLPRPRPRPPIGPRP, the “shrunken log2 fold change” value amounted to 0.849. Take RRIRIRPPRLPRPRPRPRPNPRP: the “shrunken log2 fold change” value was 0.091. On to RRIRHRPPRLPRPRPRPTWQPRP, for which the “shrunken log2 fold change” value stood at 0.572. The same measure for RRIRKRPPRLPRPRPRPCCAPRP: 1.3; for RRIRMRPPRLPRPRPRPTTRPRP: 0.832; for RRIRQRPPRLPRPRPRPCQDPRP: 0.0207. On to RRIRVRPPRLPRPRPRPCSGPRP, for which the “shrunken log2 fold change” value is -0.0235. RRIRYRPPRLPRPRPRPWMYPRP: the “shrunken log2 fold change” value is -0.00277. With RRIRQRPPRLPRPRPRPLVSPRP, the “shrunken log2 fold change” value came out at 0.00785.

On to RRIRNRPPRLPRPRPRPRGQPRP, for which the “shrunken log2 fold change” value worked out at 0.114. The same measure for RRIRDRPPRLPRPRPRPSKAPRP: -0.393; for RRIRSRPPRLPRPRPRPPHIPRP: -0.0943; for RRIRSRPPRLPRPRPRPMNRPRP: -0.378. The same measure for RRIRKRPPRLPRPRPRPHILPRP: 0.0523. The same measure for RRIRIRPPRLPRPRPRPGPLPRP: -0.00626; for RRIRLRPPRLPRPRPRPANTPRP: -0.124. Turning to RRIRERPPRLPRPRPRPRQHPRP, the “shrunken log2 fold change” value was -0.0319. Next, RRIRHRPPRLPRPRPRPGERPRP: -0.134; RRIRNRPPRLPRPRPRPVNLPRP: -0.0237; RRIRERPPRLPRPRPRPTNVPRP: -0.387. On to RRIRVRPPRLPRPRPRPPEVPRP, for which the “shrunken log2 fold change” value is 0.0599. Turning to RRIRGRPPRLPRPRPRPIFIPRP, the “shrunken log2 fold change” value is -0.0812. As for RRIRDRPPRLPRPRPRPGQSPRP, the “shrunken log2 fold change” value was determined as 0.116. The same measure for RRIRERPPRLPRPRPRPCMTPRP: -0.00173; for RRIRIRPPRLPRPRPRPNREPRP: -0.0355. Next, RRIRARPPRLPRPRPRPCQHPRP: -0.274. Next, RRIRERPPRLPRPRPRPFLEPRP: -0.436. Turning to RRIRERPPRLPRPRPRPTCPPRP, the “shrunken log2 fold change” value is -0.103.

On to RRIRYRPPRLPRPRPRPTGYPRP, for which the “shrunken log2 fold change” value is -1.16.

Turning to RRIRFRPPRLPRPRPRPPNPPRP, the “shrunken log2 fold change” value worked out at 0.412. On to RRIRFRPPRLPRPRPRPYMNPRP, for which the “shrunken log2 fold change” value was -0.818.

With RRIRARPPRLPRPRPRPSQFPRP, the “shrunken log2 fold change” value is -0.0956.

RRIRMRPPRLPRPRPRPLQGPRP: the “shrunken log2 fold change” value is 0.126. The same measure for RRIRRRPPRLPRPRPRPKTRPRP: 2.44. Regarding RRIRCRPPRLPRPRPRPPHWPRP, the “shrunken log2 fold change” value came to 0.531.

Turning to RRIRSRPPRLPRPRPRPANYPRP, the “shrunken log2 fold change” value was -0.43. The same measure for RRIRTRPPRLPRPRPRPIERPRP: 0.107; for RRIRGRPPRLPRPRPRPDDAPRP: 0.314; for RRIRCRPPRLPRPRPRPRVDPRP: 0.113. The same measure for RRIRERPPRLPRPRPRPGMMPRP: -0.235. Turning to RRIRQRPPRLPRPRPRPVSHPRP, the “shrunken log2 fold change” value was -0.0425. The same measure for RRIRFRPPRLPRPRPRPMAIPRP: -0.226. The same measure for RRIRTRPPRLPRPRPRPGLMPRP: 0.0921; for RRIRMRPPRLPRPRPRPSGYPRP: -0.0299; for RRIRCRPPRLPRPRPRPQKSPRP: -0.554. Next, RRIRVRPPRLPRPRPRPTRHPRP: 0.156. As to RRIRSRPPRLPRPRPRPVGFPRP, the “shrunken log2 fold change” value is 0.334. As to RRIRARPPRLPRPRPRPTIPPRP, the “shrunken log2 fold change” value amounted to 0.132. Next, RRIRKRPPRLPRPRPRPNAMPRP: -0.0822; RRIRDRPPRLPRPRPRPLPEPRP: 0.0958. Next, RRIRIRPPRLPRPRPRPDNPPRP: -0.152; RRIRWRPPRLPRPRPRPWCSPRP: -0.329.

RRIRLRPPRLPRPRPRPVDIPRP: the “shrunken log2 fold change” value was -0.183.

For the origin of these results see the supplement of paper PMC9112550, “Optimization of the antimicrobial peptide Bac7 by deep mutational scanning” (BMC Biology, 2022).
